The values below come from publication PMC5352738, “Characterization of three pyranose dehydrogenase isoforms from the litter-decomposing basidiomycete Leucoagaricus meleagris (syn. Agaricus meleagris)” (Applied Microbiology and Biotechnology, 2016).

Substrate in series [1]: CO[C@H]1O[C@H](CO)[C@@H](O)[C@H](O)[C@H]1O
The series is described as follows: purified protein. Type of series: biochemical, Macropsalliota meleagris. Conditions: electron donor, 0.2 mM ferrocenium, 50 mM Na phosphate pH 7.5, 30 °C.

Substrate in series [2]: O=C1C=CC(=O)C=C1
The series is described as follows: purified protein. The class given is biochemical, Macropsalliota meleagris. The settings on record: electron acceptor, 25 mM D-glucose, 100 mM Na acetate pH 4.0, 30 °C.

B1: AmPDH3 (Macropsalliota meleagris) (protein)
chain: AITYQHPDDLPSDVDYDFIVAGGGTAGLVVASRLSENPDWNILVIEAGPSNKDAPETRVPGLAGSLPASRTDWNYTTIPQDALGGRSLNYSRAKVLGGCSSHNSMVYTRGSKDDWNHWADITGDQGLSWDSILPVMKKAEKFSKDFSNQSVDGHIDPSMHGHDGLLSVVSSYTNVSFNDLLLETTKELSDEFPFKLDLNDGNPHGLAWTQYTIDHRAERSSSATSYLESTRDNVHVLVNSRVTRIFSAGNGTDFRSVEFAVDANSPKKVLTAKKEVILSAGVIASPQVLMNSGIGGREELQAIGVDTLIDNPSVGKNLSDQAATLLMFDTTLPNTDYDVAAALTEWEDSRSGPMAYGARLNHLTWVRLLDDKLNGSDPSSGKNSPHIEFQFMQISHQLPPADAPNQVKLPDPDSIGAVLLLAVVNLYSVSHGSIILNDNDPFANPMIDLNMFGDQKDIAILREGVRSARRMFSSQAFKDVVNGTVYPPADVTSDEDLDAFLRTSAISYWHGVGTLSMSPQNASWGVVDPDFRVKGTSGLRVVDASVIPYAPAGHTQVPVYTFAEHASVLIAKSYA
notes: full-length pdh3 (600 aa precursor) in pPICZB-His6, His6-tag kept, secreted from Pichia pastoris X33; strongly N-glycosylated, ~65 kDa deglycosylated; standard yellow form with covalent FAD
B1: in “purified protein [1]”, the Michaelis-Menten constant (Km) (in general, the concentration of substrate that gives half-maximal velocity) was 950 ± 60 µM; the kcat – broadly, the number of substrate molecules converted per active site and unit of time at saturation – is 1 ± 0.01 s⁻¹; the kcat/Km – broadly, the turnover number divided by the Michaelis constant – was 1050 M⁻¹ s⁻¹. Further, in the series “purified protein [2]”, the Km turned out to be 1880 ± 140 µM, the kcat is 3.57 ± 0.11 s⁻¹ and the kcat/Km turned out to be 1890 M⁻¹ s⁻¹.

B2: AmPDH2 (Macropsalliota meleagris) (protein)
chain: AITYQHPDDLPSGVDYDFIVAGGGTAGLVVASRLSENSKWNVLVIEAGPSNKDTPETRIPGLADNLPGTRTDWNYTTIPQDALGGRSLNYSRAKVLGGCSTHNGMVYTRGPRDDWNYWAEITDNQALKWDNVLPIMKNTEKFSQDFLDQSMEGHIDPSVHGFDGMLSVVASYTNVSFNNLLLETTRELSDEFPFKLDLNDGKPHGLAWTQYTIDQGAERSSSATSYLESTGDNVHVLVNTHVTRIVSAGNETDFRSVEFAVDANSPKKVLTAKKELILSAGVIASPQILMNSGIGGREELQAIGVDTLIDNPSVGRNLSDQASTLLMFDTTLPNTDYDVAAALTEWDNSRSGPMAYAARLNHLTWVRLPDDKLSGSDPSSGHDSPHIEFQFRQISHQLPPADVPNQVQLPDPDSIGVVLQFSVVNLYSISLGSVTLNNNDPFADPIIDLNMFGDQKDIAILREGVRSARRMFSSQAFKNVVHETVYPPAGVTSDEDLDAFLRTSAVSYLHGVGTLSMSPHSASWGVVNPDFRVKGTTGLRVVDASVIPRAPAGHTQIPVYTFAEHASALIADSYN
notes: full-length pdh2 (600 aa precursor) in pPICZB-His6, His6-tag kept, secreted from Pichia pastoris X33; N-glycosylated, ~65 kDa deglycosylated; covalent FAD
Turning to B2, in the series “purified protein [1]”, the Km amounted to 2000 ± 60 µM, the kcat was 85 ± 0.6 s⁻¹ and the kcat/Km is 42500 M⁻¹ s⁻¹. In “purified protein [2]”, the Km was 32.5 ± 1.9 µM, the turnover number (kcat) came to 23.4 ± 0.5 s⁻¹ and the kcat/Km worked out at 780000 M⁻¹ s⁻¹.

B3: AmPDH1 (Macropsalliota meleagris) (protein)
chain: AITYQHPDDLPSGVDYDFIVAGGGTAGLVVASRLSENSNWKVLVIEAGPSNKDAFVTRVPGLASTLGAGSPIDWNYTTIPQDGLDGRSLDYPRAKILGGCSTHNGMVYTRGSKDDWNSWAGIIGDQGLGWDSILPAIKKAEKFTQDFTDQSVKGHIDPSVHGFDGKLSVSAAYSNISFNDLLFETTKELNAEFPFKLDMNDGKPIGLGWTQYTIDNHAERSSSATSYLESTGDNVHVLVNTLVTRVLSASGNGTDFRKVEFAVDANSPKKQLEAKKEVIVAGGVIASPQILMNSGIGERKVLQAVGIDTLIDNPSVGKNLSDQGATSVMFDTTLPSTDFDVDAALTEWTNSHTGPLARGARLNHLTFVRLPDDKLNGQDPSSGKNSPHIEFQFAQITPQVPTLGVPKQAPLPAANSYRLLLQLAVVNLYSISRGSISLSDNNPFTYPLIDLNMFKEDIDIAILREGIRSAGRMFSSKAFKNSVNKFVYPPADATSDEDLDAFLRSSTFSYVHGVGTLSMSPKGASWGVVNPDFKVKGTSGLRVVDASVIPHAPAAHTQLPVYAFAEYASALIAKSYN
notes: full-length pdh1 (602 aa precursor) in pPICZB-His6, His6-tag kept, secreted from Pichia pastoris X33; N-glycosylated monomer, ~65 kDa deglycosylated; covalent FAD
As for B3, in the series “purified protein [1]”, the Km was 660 ± 50 µM, the kcat turned out to be 41.5 ± 0.8 s⁻¹ and the kcat/Km amounted to 62900 M⁻¹ s⁻¹.
